Reference: US20240343820A1 (KITE PHARMA, published 2024)

T1: SLC20A1 (PIT1) receptor (UniProt Q8WUM9 1-679, limits assumed)
T1 construct: whole, on cells; Endogenous on K562 cells (a human cell line)
T1 sequence (looked up): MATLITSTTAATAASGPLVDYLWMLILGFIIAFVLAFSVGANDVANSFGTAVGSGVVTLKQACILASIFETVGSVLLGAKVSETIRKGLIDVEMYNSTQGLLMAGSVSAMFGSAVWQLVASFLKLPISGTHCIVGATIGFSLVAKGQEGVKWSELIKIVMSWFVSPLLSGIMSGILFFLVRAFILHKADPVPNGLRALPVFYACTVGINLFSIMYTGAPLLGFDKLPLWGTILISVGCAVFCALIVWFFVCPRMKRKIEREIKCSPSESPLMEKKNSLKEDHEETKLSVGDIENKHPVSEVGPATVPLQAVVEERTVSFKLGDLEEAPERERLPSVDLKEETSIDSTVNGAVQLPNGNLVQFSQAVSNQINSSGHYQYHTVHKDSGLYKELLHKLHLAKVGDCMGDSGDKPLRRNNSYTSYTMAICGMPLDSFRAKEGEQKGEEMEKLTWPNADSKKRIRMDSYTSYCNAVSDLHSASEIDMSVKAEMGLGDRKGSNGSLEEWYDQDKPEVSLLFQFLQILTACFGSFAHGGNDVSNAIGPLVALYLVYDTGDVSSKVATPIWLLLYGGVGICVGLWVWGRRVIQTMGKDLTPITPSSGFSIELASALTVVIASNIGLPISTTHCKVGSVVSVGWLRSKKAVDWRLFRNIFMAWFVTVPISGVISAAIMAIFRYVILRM

B1: huIgG1 monoFc tagged GALV gp70 protein (residues 505-616) (Fc fusion)
chain: not shown
notes: Residues are numbered according to Uniprot P21415; also called gp70 (505-616); coiled-coil (CC) domain of GALV gp70
B2: huIgG1 monoFc tagged GALV gp70 protein (residues 42-474) (Fc fusion)
chain: TSLQNKNPHQPMTLTWQVLSQTGDVVWDTKAVQPPWTWWPTLKPDVCALAASLESWDIPGTDVSSSKRVRPPDSDYTAAYKQITWGAIGCSYPRARTRMASSTFYVCPRDGRTLSEARRCGGLESLYCKEWDCETTGTGYWLSKSSKDLITVKWDQNSEWTQKFQQCHQTGWCNPLKIDFTDKGKLSKDWITGKTWGLRFYVSGHPGVQFTIRLKITNMPAVAVGPDLVLVEQGPPRTSLALPPPLPPREAPPPSLPDSNSTALATSAQTPTVRKTIVTLNTPPPTTGDRLFDLVQGAFLTLNATNPGATESCWLCLAMGPPYYEAIASSGEVAYSTDLDRCRWGTQGKLTLTEVSGHGLCIGKVPFTHQHLCNQTLSINSSGDHQYLLPSNHSWWACSTGLTPCLSTSVFNQTRDFCIQVQLIPRIYYYPEE
notes: also called gp70 (42-474)

Assays:
SLC20A1 (PIT1) receptor [1] = target: T1, SLC20A1 (PIT1) receptor; test: flow cytometry, monoFc-tagged gp70 (505-616) on K562 cells (endogenous SLC20A1), PE anti-human Fc secondary
[2] = target: B2; test: BLI Octet Red96; antibody on AMC biosensor, 100 nM monoFc-gp70(42-474) analyte
[3] = target: B1; test: indirect ELISA, hybridoma supernatant on coated monoFc-tagged gp70 (505-616)
SLC20A1 (PIT1) receptor [4] = target: T1, SLC20A1 (PIT1) receptor; test: flow cytometry, monoFc-tagged gp70 protein on K562 cells (endogenous SLC20A1), PE anti-human Fc secondary; CHO as negative cells

Binder	binding result (SLC20A1 (PIT1) receptor [1])	Kd [2]	koff [2]	kon [2]	binding result [3]	binding result (SLC20A1 (PIT1) receptor [4])
B1	no binding (tested: 10.00 ug/100ul)					
40A3 (antibody, V domains shown, Anti-GALV gp70; One id for the hybridoma supernatant and the recombinant murine IgG2a antibody; also called 40A3-HC / 36H3-LC) VH: DVQLQESGPDLVKPSQSLSLTCTVTDFSITSDYTWHWVRQFPGNKLEWMAYIHYSGGTNYNPSLRSRISITRDTSKNQFFLHMNSVTTEDTATYYCLYYGSRDAVDYWGQGTSVTVSS VL: QIVLTQSPAIMSASPGEKVTMTCSTSSSVTYMHWYQQKSGTSPKRWIYDTSKLASGVPARFSGSGSGTSYSLTISSMEAEDAATYYCQQWSSSPYTFGGGTKLEIK		0.00524 nM	6e-07 s⁻¹	114000 M⁻¹ s⁻¹	no binding	
B2						binds
huIgG1 monoFc tagged GALV gp70 protein (residues 42-616) (Fc fusion, Residues are numbered according to Uniprot P21415; also called gp70 (42-616); RBD+CC domains) TSLQNKNPHQPMTLTWQVLSQTGDVVWDTKAVQPPWTWWPTLKPDVCALAASLESWDIPGTDVSSSKRVRPPDSDYTAAYKQITWGAIGCSYPRARTRMASSTFYVCPRDGRTLSEARRCGGLESLYCKEWDCETTGTGYWLSKSSKDLITVKWDQNSEWTQKFQQCHQTGWCNPLKIDFTDKGKLSKDWITGKTWGLRFYVSGHPGVQFTIRLKITNMPAVAVGPDLVLVEQGPPRTSLALPPPLPPREAPPPSLPDSNSTALATSAQTPTVRKTIVTLNTPPPTTGDRLFDLVQGAFLTLNATNPGATESCWLCLAMGPPYYEAIASSGEVAYSTDLDRCRWGTQGKLTLTEVSGHGLCIGKVPFTHQHLCNQTLSINSSGDHQYLLPSNHSWWACSTGLTPCLSTSVFNQTRDFCIQVQLIPRIYYYPEEVLLQAYDNSHPRTKREAVSLTLAVLLGLGITAGIGTGSTALIKGPIDLQQGLTSLQIAIDADLRALQDSVSKLEDSLTSLSEVVLQNRRGLDLLFLKEGGLCAALKEECCFYIDHSGAVRDSMKKLKEKLDKRQLERQKSQN						binds
8G8 (antibody, V domains shown, Anti-GALV gp70; One id for the hybridoma supernatant and the recombinant murine IgG2a antibody; also called 8G8-HC2 / 8G8-LC2) VH: QVQLQQPGAELVRPGSSVKLSCKASGYTFTNYWMDWVKQRPGQGLEWIGNIYPSDSETHYNQNFKDKATLTVDKSSSTAYMQLSSLTSEDSAVYYCARDYYWGQGTTLTVSS VL: QAVVTQESALTTSPGETVTLTCRSSTGAVTRSNYANWVQEKPDHLFTGLIGGTNNRALGVPARFSGSLIGDKAALTITGAQTEDEAIYFCALWYSNHLVFGGGTKLTVLQ		0.193 nM	6.31e-05 s⁻¹	328000 M⁻¹ s⁻¹		
9A1 (antibody, V domains shown, Anti-GALV gp70; One id for the hybridoma supernatant and the recombinant murine IgG2a antibody; also called 9A1-HC3 / 9A1-LC1) VH: QVQLQQPGAELVRPGSSVRLSCKASGYTFTSYWMDWVKQRPGQGLEWIGNIYPSDSETHYNQKFKDKATLTVDKSSSTAYMQLSSLTSEDSAVYYCARDYYWGQGTTLTVSS VL: QAVVTQESALTTSPGETVTLTCRSSTGAVTRSNYANWVQEKPDHLFTGLIGGTNNRAPGVPARFSGSLIGDKAALTITGAQTEDEAIYFCALWYSNHLVFGGGTKLTVLQ		1.4 nM	0.000447 s⁻¹	318000 M⁻¹ s⁻¹		
4F1 (antibody, V domains shown, Anti-GALV gp70; One id for the hybridoma supernatant and the recombinant murine IgG2a antibody; also called 4F1-HC / 4F1-LC1) VH: QVQLQQPGAELVRPGSSVKLSCKASGYTFTSYWMDWMKQRPGQGLEWIGHIYPSDSETHYNQKFKDRATLTVDKSSSAAFMQLSSLTSEDSAVYYCARDYYWGQGTTLTVSS VL: QAVVTQESALTTSPGETVTLTCRSSTGAVTTSNYANWVQEKPDHLFTGLIGGTNNRAPGVPARFSGSLIGDKAALTITGAQTEDEAIYFCALWYSNHLVFGGGTKLTVLQ		1.69 nM	0.000607 s⁻¹	359000 M⁻¹ s⁻¹	no binding	
9G11 (antibody, V domains shown, Anti-GALV gp70; One id for the hybridoma supernatant and the recombinant murine IgG2a antibody; also called 9G11-HC / 9G11-LC) VH: QVQLQQPGAELVRPGSSVKLSCKASGYTFTNYWMDWVKQRPGQGLEWIGHIYPSDSETHYIQKFKDKATLTVDKSSNTAYMQLSSLTSEDSAVYYCARDYYWGQGTTLTVSS VL: QAVVTQESALTTSPGETVTLTCRSSTGAVTTSNYANWVQEKPDHLFTGLIGGTNNRAPGVPARFSGSLIGDKAALTITGAQTEDEAIYFCALWYSSQLVFGGGTKLTVLQ		0.704 nM	0.000257 s⁻¹	366000 M⁻¹ s⁻¹	no binding	
2D3 (antibody, V domains shown, Anti-GALV gp70; One id for the hybridoma supernatant and the recombinant murine IgG2a antibody; also called 2D3-HC1 / 2D3-LC1) VH: QVQLQQPGAELVRPGSSVKLSCKASGYTFTNYWMDWVKQRPGQGLEWIGNIYPSDSETHYNQKFRDKATLTVDKPSSTAYMQLSSLTSEDSAVYYCARDYYWGQGTTLTVSS VL: QAVVTQESALTTSPGETVTLTCRSSTGAVTTSNYANWVQEKPDHLFTGLIGGTNNRALGVPARFSGSLIGDKAALTITGAQIEDEAIYFCALWYSNHLVFGGGTKLTVLQ		1.71 nM	0.00048 s⁻¹	281000 M⁻¹ s⁻¹		
35C11 (antibody, V domains shown, also called 35C11-HC / 35C11-LC) VH: QVQLQQSGPELVRPGVSVKISCKVSGYTFTDYTMHWVKQSHAKSLEWIGLISTYSGKTNYNQKLKDKATMTVDKSSSTAYMELARLTSEDSAIFYCARGGLRDAMDYWGQGTSVTVSS VL: DIVLTQSPASLAVSLGQGATISCRASESVDSYGNSFMHWYQQKPGQPPKLLIYRASNLESGIPARFSGSGSGTDFTLTINPVEADDVATYYCLQSNEDPRTFGGGTKLEIK		0.0122 nM	6.29e-07 s⁻¹	51500 M⁻¹ s⁻¹		
40A6 (antibody, V domains shown, Anti-GALV gp70; One id for the hybridoma supernatant and the recombinant murine IgG2a antibody; also called 40A6-HC / 40A6-LC) VH: EVQLVESGGGLVKPGGSLKLSCAASGFTFSSYVLSWVRQIPEKRLEWVATINSGGSYTYYPDSVKGRFTISRDNAKNTLYLQMSSLRSEDTAIYYCARHLIYYDYDGYYFDTWGQGTSLTVSS VL: DVVMTQTPLSLPVSLGDQASISCRSSQTLVHSNGNIYLHWYLQKPGQSPKLLIYKVSNRFSGVPDRFSGSGSGTDFTLKISRVETEDLGIYFCSQTTHVPPTFGGGTKLEIK		0.0175 nM	6.72e-07 s⁻¹	38300 M⁻¹ s⁻¹		
